From patent US20140274782A1 (Stanford University, published 2014)

What was measured:
Test in all cases: ProtoArray, GST-treated control array;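 note: human protein microarray (about 9500 recombinant proteins) incubated overnight with GST alone plus SAM cofactor as the negative control for G9a SET domain methylation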
CTSZ-Cathepsin Z = CTSZ-Cathepsin Z (human, UniProt Q9UBR2 24-303, limits assumed)
[1] = target: HPCAL4-hippocalcin like 4 (HPCAL4) (human, UniProt Q9UM19 1-191)
[2] = target: T1, PPIL5-Peptidylprolyl isomerase-like 5 (human, UniProt Q96L50 1-414, limits assumed)
T1 sequence (looked up): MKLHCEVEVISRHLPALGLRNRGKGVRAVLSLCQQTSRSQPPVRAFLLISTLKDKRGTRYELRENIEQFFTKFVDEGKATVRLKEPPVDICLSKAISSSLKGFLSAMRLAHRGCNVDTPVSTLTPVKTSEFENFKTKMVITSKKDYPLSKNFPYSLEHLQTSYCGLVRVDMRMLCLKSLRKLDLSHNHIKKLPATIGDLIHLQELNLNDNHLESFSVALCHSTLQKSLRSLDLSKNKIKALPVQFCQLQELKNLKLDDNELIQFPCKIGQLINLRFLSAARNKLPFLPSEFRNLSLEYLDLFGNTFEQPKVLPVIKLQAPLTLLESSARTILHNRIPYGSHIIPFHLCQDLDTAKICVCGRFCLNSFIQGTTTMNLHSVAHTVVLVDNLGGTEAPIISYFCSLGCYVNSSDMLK

[3] = target: T2, GGPS1-Geranylgeranyl pyrophosphate synthetase (human, UniProt O95749 1-300)
T2 sequence (looked up): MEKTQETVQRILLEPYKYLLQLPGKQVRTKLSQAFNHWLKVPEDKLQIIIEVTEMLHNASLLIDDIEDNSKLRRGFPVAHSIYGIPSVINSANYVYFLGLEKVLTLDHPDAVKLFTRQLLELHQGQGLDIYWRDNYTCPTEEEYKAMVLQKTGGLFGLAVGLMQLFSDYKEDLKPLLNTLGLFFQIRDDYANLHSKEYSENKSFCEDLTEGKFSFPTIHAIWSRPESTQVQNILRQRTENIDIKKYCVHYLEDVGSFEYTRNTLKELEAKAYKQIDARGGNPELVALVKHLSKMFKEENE

[4] = target: T3, GAL-galanin prepropeptide (GAL) (human, UniProt P22466 1-123, limits assumed)
T3 sequence (looked up): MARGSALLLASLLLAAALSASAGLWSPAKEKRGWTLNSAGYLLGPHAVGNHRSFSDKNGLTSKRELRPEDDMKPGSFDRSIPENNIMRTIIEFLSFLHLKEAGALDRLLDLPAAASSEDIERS

[5] = target: HS3ST1-heparan sulfate (glucosamine) 3-O-sulfotransferase 1 (HS3ST1) (human, UniProt O14792 21-307, limits assumed)
[6] = target: LOC145788-PREDICTED: Homo sapiens hypothetical LOC145788 (LOC145788) (human)
[7] = target: T4, TCTA-T-cell leukemia translocation altered gene (TCTA) (human, UniProt P57738 1-103)
T4 sequence (looked up): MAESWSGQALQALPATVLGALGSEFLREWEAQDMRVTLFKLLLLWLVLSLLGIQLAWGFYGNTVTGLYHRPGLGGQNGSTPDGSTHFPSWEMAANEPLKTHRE

[8] = target: T5, SH3YL1-SH3 domain containing, Ysc84-like 1 (S. cerevisiae) (SH3YL1) (human, UniProt Q96HL8 1-342, limits assumed)
T5 sequence (looked up): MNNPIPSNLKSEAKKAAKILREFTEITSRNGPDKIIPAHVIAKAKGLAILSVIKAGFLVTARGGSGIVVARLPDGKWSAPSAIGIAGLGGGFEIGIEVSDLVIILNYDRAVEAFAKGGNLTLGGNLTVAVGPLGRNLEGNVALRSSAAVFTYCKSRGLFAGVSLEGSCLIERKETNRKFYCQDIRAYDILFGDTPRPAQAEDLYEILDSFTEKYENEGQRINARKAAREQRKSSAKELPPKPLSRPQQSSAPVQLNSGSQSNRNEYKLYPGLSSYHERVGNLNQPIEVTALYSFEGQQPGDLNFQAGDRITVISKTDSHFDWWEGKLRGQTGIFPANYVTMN

[9] = target: T6, LYRM7-Lyrm7 homolog (mouse) (LYRM7) (human, UniProt Q5U5X0 1-104)
T6 sequence (looked up): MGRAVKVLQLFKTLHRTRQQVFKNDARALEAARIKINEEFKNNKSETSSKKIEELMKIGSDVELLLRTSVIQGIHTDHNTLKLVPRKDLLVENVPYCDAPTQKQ

[10] = target: T7, LRRC20-leucine rich repeat containing 20 (LRRC20) (human, UniProt Q8TCA0 1-184, limits assumed)
T7 sequence (looked up): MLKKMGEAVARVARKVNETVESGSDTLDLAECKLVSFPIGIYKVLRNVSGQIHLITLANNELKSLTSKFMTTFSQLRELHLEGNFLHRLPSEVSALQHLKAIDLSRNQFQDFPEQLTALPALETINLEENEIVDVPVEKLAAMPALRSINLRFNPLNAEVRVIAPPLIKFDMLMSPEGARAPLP

[11] = target: T8, MAGEH1-melanoma antigen family H, 1 (MAGEH1) (human, UniProt Q9H213 1-219)
T8 sequence (looked up): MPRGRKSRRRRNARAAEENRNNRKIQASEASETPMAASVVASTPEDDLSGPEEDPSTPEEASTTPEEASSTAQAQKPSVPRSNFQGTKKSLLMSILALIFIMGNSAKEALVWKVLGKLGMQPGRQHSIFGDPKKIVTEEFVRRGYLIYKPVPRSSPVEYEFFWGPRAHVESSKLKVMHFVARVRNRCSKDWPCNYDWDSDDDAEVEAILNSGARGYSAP

Sequence of CTSZ-Cathepsin Z (Q9UBR2 24-303 limits assumed): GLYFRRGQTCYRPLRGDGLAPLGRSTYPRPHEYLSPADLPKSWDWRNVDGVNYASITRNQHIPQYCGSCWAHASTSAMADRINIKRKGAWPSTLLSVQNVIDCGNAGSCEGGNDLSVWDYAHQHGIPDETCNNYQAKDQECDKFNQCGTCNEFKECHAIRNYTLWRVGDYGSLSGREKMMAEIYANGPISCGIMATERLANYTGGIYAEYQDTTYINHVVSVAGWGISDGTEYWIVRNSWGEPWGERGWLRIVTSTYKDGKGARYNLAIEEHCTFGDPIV
Sequence of HS3ST1-heparan sulfate (glucosamine) 3-O-sulfotransferase 1 (HS3ST1) (O14792 21-307 limits assumed): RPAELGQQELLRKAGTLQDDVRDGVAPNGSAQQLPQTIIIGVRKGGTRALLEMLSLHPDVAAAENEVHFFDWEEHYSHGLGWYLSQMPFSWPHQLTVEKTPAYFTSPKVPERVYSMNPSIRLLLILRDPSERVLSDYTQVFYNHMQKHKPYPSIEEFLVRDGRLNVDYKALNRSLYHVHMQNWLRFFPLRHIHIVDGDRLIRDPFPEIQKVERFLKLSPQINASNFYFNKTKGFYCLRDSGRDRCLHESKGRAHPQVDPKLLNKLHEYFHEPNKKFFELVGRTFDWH
Sequence of HPCAL4-hippocalcin like 4 (HPCAL4) (Q9UM19 whole entry): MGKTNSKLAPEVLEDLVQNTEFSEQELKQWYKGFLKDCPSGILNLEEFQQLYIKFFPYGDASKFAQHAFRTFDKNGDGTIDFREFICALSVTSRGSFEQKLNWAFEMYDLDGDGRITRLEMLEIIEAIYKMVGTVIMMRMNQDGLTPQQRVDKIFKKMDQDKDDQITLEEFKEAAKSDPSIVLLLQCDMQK

B1: 3× Flag-3×MBT (designed binder)
chain: EEWSSSQPATGEKKECWSWESYLEEQKAITAPVSLFQDSQAVTHNKNGFKLGMKLEGIDPQHPSMYFILTVAEVCGYRLRLHFDGYSECHDFWVNANSPDIHPAGWFEKTGHKLQPPKGYKEEEFSWSQYLRSTRAQAAPKHLFVSQSHSPPPLGFQVGMKLEAVDRMNPSLVCVASVTDVVDSRFLVHFDNWDDTYDYWCDPSSPYIHPVGWCQKQGKPLTPPQDYPDPDNFCWEKYLEETGASAVPTWAFKVRPPHSFLVNMKLEAVDRRNPALIRVASVEDVEDHRIKIHFDGWSHGYDFWIDADHPDIHPAGWCSKTGHPLQPPLGPREPSSASPGG
notes: also called Flag-tagged 3×MBT; 3xFlag-3xMBT; not shown: made by PreScission cleavage of GST-3× Flag-3×MBT
- GST Average SNR (CTSZ-Cathepsin Z): 1.28
- GST Average SNR [1]: -0.871
- GST Average SNR [2]: -0.512
- GST Average SNR [3]: -0.483
- GST Average SNR [4]: -0.0625
- GST Average SNR [5]: 0.092
- GST Average SNR [6]: 0.224
- GST Average SNR [7]: 1.18
- GST Average SNR [8]: 0.377
- GST Average SNR [9]: 0.278
- GST Average SNR [10]: 1.4
- GST Average SNR [11]: 1.11
